The values below come from patent US20210284734A1.

This test has as its target cyno PD1. Briefly: flow cytometry, PD-1-transfected CHO-S cells; mAb 10 ug/ml, then R-PE PD-L1-Fc as blocked ligand. (A flow cytometer gives signals particle by particle.)

Chain of pembrolizumab analogue (antibody) (VH): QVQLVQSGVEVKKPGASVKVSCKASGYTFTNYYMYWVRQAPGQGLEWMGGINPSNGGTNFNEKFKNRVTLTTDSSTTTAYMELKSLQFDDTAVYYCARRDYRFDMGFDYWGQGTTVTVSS
Chain of pembrolizumab analogue (antibody) (VL): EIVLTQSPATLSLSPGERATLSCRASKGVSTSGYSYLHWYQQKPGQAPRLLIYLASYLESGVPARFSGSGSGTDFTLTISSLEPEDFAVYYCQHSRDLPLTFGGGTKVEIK
Chain of cyno PD1 (receptor, as listed by the source limits assumed): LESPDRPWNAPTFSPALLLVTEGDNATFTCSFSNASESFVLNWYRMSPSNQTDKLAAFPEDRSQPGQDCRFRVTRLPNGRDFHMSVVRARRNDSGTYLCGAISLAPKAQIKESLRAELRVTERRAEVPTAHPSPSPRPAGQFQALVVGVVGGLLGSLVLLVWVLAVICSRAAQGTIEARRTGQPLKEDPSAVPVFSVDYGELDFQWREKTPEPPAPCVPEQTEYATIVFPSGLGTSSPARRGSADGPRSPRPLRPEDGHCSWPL

Substance pembrolizumab analogue (antibody) returned a % of all cells in Q2 of panel PD-L1 binding (PD-L1+, CFSE+ cyno PD1 cells) of 0.38%; a % of all cells in Q3 of panel PD-L1 binding (PD-L1-, CFSE+ cyno PD1 cells) of 52.5%; a % of cyno PD1-gated cells in Q1 (mAb+, PD-L1-) of 44.7%; a % of cyno PD1-gated cells in Q2 (mAb+, PD-L1+) of 3.84%. The % of cyno PD1-gated cells in Q3 (mAb-, PD-L1+) worked out at 0.92% and the % of cyno PD1-gated cells in Q4 (mAb-, PD-L1-) was determined as 50.6%.
